# Reference: patent US12258605B2, “Alkane oxidation by modified hydroxylases” (The California Institute of Technology, priority 2005, dated 2025)
# B1: 35-E11: P450 BM-3 variant, SEQ ID NO:7: 53-5H substitutions plus E464G and I710T (protein)
# chain: TIKEMPQPKTFGELKNLPLLNTDKPVQALMKIADELGEIFKFEAPGCVTRYLSSQRLIKEACDESRFDKNLSQALKFFRDFSGDGLFTSWTHEINWKKAHNILLPSFSQQAMKGYHAMMVDIAVQLVQKWERLNADEHIEVSEDMTRLTLDTIGLCGFNYRFNSFYRDQPHPFIISMVRALDEVMNKLQRANPDDPAYDENKRQCQEDIKVMNDLVDKIIADRKARGEQSDDLLTQMLNGKDPETGEPLDDGNISYQIITFLIAGHETTSGLLSFALYFLVKNPHVLQKVVEEAARVLVDPVPSYKQVKQLKYVGMVLNEALRLWPTFPAFSLYAKEDTVLGGEYPLEKGDEVMVLIPQLHRDKTIWGDDVEEFRPERFENPSAIPQHAFKPFGNGQRACIGQQFALHEATLVLGMMLKHFDFEDHTNYELDIKETLTLKPEGFVVKAKSKKIPLGGIPSPSTGQSAKKVRKKAENAHNTPLLVLYGSNMGTAEGTARDLADIAMSKGFAPQVATLDSHAGNLPREGAVLIVTASYNGHPPDNAKQFVDWLDQASADEVKGVRYSVFGCGDKNWATTYQKVPAFIDETLAAKGAENIADRGEADASDDFEGTYEEWREHMWSDVAAYFNLDIENSEDNKSTLSLQFVDSAADMPLAKMHGAFSTNVVASKELQQPGSARSTRHLEIELPKEASYQEGDHLGVIPRNYEGTVNRVTARFGLDASQQIRLEAEEEKLAHLPLAKTVSVEELLQYVELQDPVTRTQLRAMAAKTVCPPHKVELEALLEKQAYKEQVLAKRLTMLELLEKYPACEMKFSEFIALLPSIRPRYYSISSSPRVDEKQASITVSVVSGEAWSGYGEYKGIASNYLAELQEGDTITCFISTPQSEFTLPKDPETPLIMVGPGTGVAPFRGFVQARKQLKEQGQSLGEAHLYFGCRSPHEDYLYQEELENAQSEGIITLHTAFSRMPNQPKTYVQHVMEQDGKKLIELLDQGAHFYICGDGSQMAPAVEATLMKSYADVHQVSEADARLWLQQLEEKGRYAKDVWAG
# modifications: mutant P450 35-E11 protein sequence
# What was measured:
# Assay type in all cases: biochemical
# [1] = Kinetic constants for n-alkanes: heptane; conditions: N.m = not measurable
# Method: (§1) Rate measurements. Initial rates of product formation were determined at 25° C. in 100 mM KPi pH 8.0 buffer using purified protein (100 nM) and a substrate concentration of 1.6 mM. In a 5 mL-vial, 20 μL of alkane solution (in ethanol) were dissolved in 400 μL KPi buffer, to which 500 μL enzyme solution at 100-200 nM was added. Reaction was initiated by adding 100 μL of 5 mM NADPH solution, followed by stirring at 300 rpm for 1 minute, and quenched by adding 200 μL chloroform and stirring at 800 rpm for 10 sec. Solutions were transferred to an Eppendorf tube, to which internal standard (10 μL 25 mM 1-bromohexane in ethanol) was added. Tubes were vortexed for 10 sec and centrifuged for 30 sec at 10,000 g. Organic phase was removed and analyzed by GC. For propane, reactions were carried out in a 5 mL-scale using 100-400 nM purified enzyme, propane-saturated buffer (propane concentration≈1.6 mM) and a final NADPH concentration of 500 μM. Reactions were stopped by addition of 200 μL H2SO4 conc. and analyzed by derivatization to alkyl nitrites followed by GC-ECD analysis as described below.
# (§2) Products from alkane reactions were identified and quantified by gas chromatography using authentic standards and calibration curves with internal standards. For the reactions with alkanes from pentane to decane, GC analyses were carried out using a Shimadzu GC-17A gas chromatograph, Agilent HP5 column (30 m×0.32 mm×0.1 μm film), 1 μL injection, FID detector, and the following separation program: 250° C. inlet, 250° C. detector, 50° C. oven for 3 min, 5° C./min gradient to 100° C., 25° C./min gradient to 230° C., and 230° C. for 3 min. For butane and propane (TTN) reactions, GC analyses were carried out using a Hewlett-Packard 5890 Series II Plus gas chromatograph, Supelco SPB-1 column (60 m×0.52 mm×0.5 μm film), 0.5 μL injection, FID detector, and the following separation program: 250° C. inlet, 275° C. detector, 80° C. oven for 2 min, 10° C./min gradient to 110° C., 25° C./min gradient to 275° C., and 275° C. for 2.5 min. For ethane and propane (rate) reactions, analysis of reaction mixtures was carried out by derivatization to alkyl nitrites followed by GC-ECD analysis. For laurate, reaction product analysis was carried out by derivatization with N-methyl-N-trimethylsilylheptafluorobutyramide followed by extraction with hexane. Organic solutions were analyzed by FID-GC.
# (§3) To further investigate the evolution of substrate specificity, kinetic constants for the C5 to C8 alkanes were determined from Michaelis-Menten plots (Table 19). The preference of 35E11 and its evolutionary predecessors for medium-chain alkanes is indicated by their high C8/C5 specificities ((kcat/Km)8/(kcat/Km)5˜100), where Km appears to be the major contributing factor. C8/C5 specificity decreases to ˜5 in the immediate precursors of P450PMO and then switches altogether to the smaller alkane, becoming 0.4 in P450PMO. In P450PMO, catalytic efficiency is highest on propane and decreases along the alkane series, driven by decreasing kcat.
# [2] = Kinetic constants for n-alkanes: octane
# Method: as §1, §2, §3
# [3] = Reactions on alkanes, total turnovers (Table 18): ethane; conditions: ethane (2 C atoms)
# Method: (§4) Reactions on alkanes. Reactions with alkanes from pentane to decane were carried out at 3 mL-scale using 100 mM KPi pH 8.0 buffer containing 2% ethanol (to allow alkane solubilization) and purified protein. 2.5 mL KPi buffer were added with 60 μL of 90 mM alkane solution in ethanol (final conc.=1.8 mM), 150 μL enzyme solution at 1 μM (final conc.=50 nM), and 300 μL NADPH regeneration solution (100 units/mL isocitrate dehydrogenase, 70 mg/mL isocitrate, 1.5 mg/ml NADP^+). Vials were sealed and stirred for 24 hours at 4° C. 1 mL-aliquot of the reaction was removed, added with 10 μl internal standard (25 mM 1-bromohexane in ethanol), and extracted with 200 μl chloroform (30 sec vortexing, 1 min centrifugation at 10000 g). The organic phase was removed and analyzed by gas chromatography. Reactions with ethane, propane, and butane were carried out as described for longer alkanes with the only difference that alkane-saturated KPi buffer was used. Propane reactions with variants from HL5 and L9 libraries were performed on 1 mL-scale reaction using 20 nM enzyme to reduce oxygen limitation. Propane and butane reactions were analyzed by direct injection of reaction solution on the GC using 1-pentanol as internal standard. Ethane reaction products were functionalized (see below) and analyzed by GC using 1-butanol as internal standard. All measurements were performed in triplicate.
# as §2
# (§5) TTNs for each variant-substrate pair were determined using standardized reaction conditions (identical enzyme and substrate concentration, incubation time, cofactor regeneration system) (Table 18). TTN values were used to assess performance because TTN is a cumulative measure of both catalytic and coupling efficiency and because mutants were selected based on improvement in this property. To facilitate comparison among the variants, TTNs were normalized to the highest value in the series (MTN=Maximal Turnover Number) and plotted for the increasing-sized substrates (FIG. 38). A gradual shift of the enzyme's substrate preference during laboratory evolution is evident from these profiles. The marginal activity of wild-type BM3 on these substrates (MTN=150) is restricted to the long-chain alkanes, where it is a promiscuous function of BM3's high C12-C20 fatty acid hydroxylase activity. In the first evolutionary intermediates, substrate preference centers on medium-chain alkanes […], reflecting their selection for activity on octane. In 35E11, selected for activity on propane, preference still centers on C6-C8 alkanes but now extends towards the shorter ones, including propane. Propane activity becomes prevalent with the transition from variant ETS8 to 19A12. […]
# [4] = Reactions on alkanes, total turnovers (Table 18): propane; conditions: propane (3 C atoms)
# Method: as §4, §2
# Because 35E11 was only marginally stable, the engineering strategy described herein (see below) involved an initial stabilization step followed by iterative rounds of mutagenesis and screening. Random, saturation and site-directed mutagenesis methods were used to create libraries of mutants (FIG. 35), which were screened for activity on a propane surrogate, dimethyl ether. Positives were confirmed in a re-screen and purified for further analysis. Reactions with purified enzymes were carried out in sealed vials in the presence of propane-saturated buffer and a cofactor regeneration system. Improvement in propane total turnover number-moles of propanol produced per mole of enzyme—was a selection criterion for taking a mutant to the next round.
# TTNs for each variant-substrate pair were determined using standardized reaction conditions (identical enzyme and substrate concentration, incubation time, cofactor regeneration system) (Table 18). TTN values were used to assess performance because TTN is a cumulative measure of both catalytic and coupling efficiency and because mutants were selected based on improvement in this property. […]
# [5] = Reactions on alkanes, total turnovers (Table 18): nonane; conditions: nonane (9 C atoms)
# Method: as §4, §2, §5
# [6] = TTN normalized to the highest value of the variant's series
# [7] = total turnovers, standardized reaction conditions
molecule,measurement,setting,value
B1,kcat,[1],635 ± 83 min⁻¹
same,Km,[1]; read-out: Km,200 ± 46 µM
same,Km,[2],85 ± 25 µM
same,kcat,[2],390 ± 95 min⁻¹
same,% rel. act.,[3]; [6],3.5%
same,TTN,[3]; [7],220 ± 30
same,% rel. act.,[4]; [6],71.7%
same,TTN,[4]; [7],4550 ± 350
same,% rel. act.,[5]; [6],52.6%
same,TTN,[5]; [7],3350 ± 133
